Among the data in a protein production outcome set (Wang et al. 2014) are protein production values, retold here.

A short description of this series: label from the status in PepcDB records.

Regarding “MENSLRSTLLDIVKGCIATVALFIAYLELPVIGMLAGVVVPLPALLYDLKRGKWSGLAIVLASALIFMLIAGPAGALLYVLQAGIFSLALPRFLTMGGGPARALASAVAVTVAVITAAAVGYGVTRGVTVEGQVAESLQSSITQAIQLYEKSGVSGADLDELREGMEQAAKSLAQLYPSLFVVGIAMAGGLNLLLLQRFGRRLGLAVPGGSFGKYRNPDHLVWLPICAGFALLAGHDAVTTIALNVLVLTGFLYFIQGMAIIIHLFDRYAAPAFLRYLLYFLLFVQAYLVVAVALFGLLDLWGNFRRPRIPTNL”, the protein production result is given as “failed”. In the case of “MEPCELSANTVIAHPRALTDKMTLIRDAGPSKFQVFPTPISEQGDAYYDAKRQALYDHYHPLEISPVIPIDEKTKLMEEWWGKTHELLIEGGLTYDAIKKSVANSSIAFREGVSELFEFLEKKEIPVLIFSAGLADVIEEVTLKSISLLELLSYFCCLYNEYAFVAYSHSYQVLRQNLDRTFKNVKIVSNRMVFNDDGQLVSFKGKLIHVLNKNEHALDMAAPLHDRLGVDIGEEDEENVNMKERRNVLLMGDHLGDLRMSDGLDYETRISIGFL” it was “failed”; in that of “MEPRVGNKFRLGRKIGGGSFGEIYLGTNIQTNEEVAIKLENVKTKHPQLLYESKLYKVLQGGTGVPNVKWYGVEGDYNVLVIDLLGPSLEDLFNFCSRKLSLKTVLMLADQMINRIEFVHQKSFLHRDIKPDNFLMGLGRRANQVYVIDFGLAKKYRDSNHQHIPYRENKNLTGTARYASMNTHLGIEQSRRDDLESLGFVLMYFLKGSLPWQGLKAGNKKQKYEKISEKKVSTSIEALCRGYPSEFASYFHYCRSLRFDDKPDYAYLKRLFRDLFIREGFQFDYVFDWTILKYQQSQISTPPPRHHGPVVGPSSALPPAITSAERPSGGDEARPSGWSSGIPRRNSGQIFNSGSLAKQKAPVSSDPAISKDVVLSSSSFLRATGSSRRAAVSSSREAAVLGTDSEPSNPQIVEAGSGSNSKIPVSRNSPIVSSEINKLSSPSRATTSVMKNYEANLKGIESLHF”, “not failed”; in that of “MEPSSLVLALEQTSEVLGKEPIVPFAILLVVLLVVPILFERLRLPGIVGLVLSGLVLGPSGWNLFHTKSPMISLLSDIGLVYLMFVAGLEVDLELWRRRQRRALGFGCVSFTIPLLIGTLVGRFFHFGWNTSVLIGSLLTSYSLLAYPIINRLGVISNQAVTITIGATVFTDISALIVLAICIPAFQMGMSNIYQILSLLGWLIIYSIVILVGFDWAGREFFRRSGDDEGNKFLFVLLTVFLAVVVAQLIGIEKILGAFLAGLAVNEAVGEGPVKEKIVFVGSVLFIPIFFINLGLLIDLPGLVNSLFTLQLTSLIVISLVASKFIAAWLAKVFYGYSWQEMLTMWSLSIPQVGTTLAATFVGYHTGLLSSAVLTSVVILMLITATLGPLITSRTARALTTVSITESVDANLPEPQVIETQNGNFTIVVPIYNPHTQQYLVEMAALLAHQAQGRIIPLTIATAAAHMDAPQLESTLQRSERLLAKATSQSQALGVAASPLLRIDDASAPGISRAAREQKANLIVMGWGKRTGLRARLFGNVIDNVLWSSHCPVAVTRLVESPKKIQRILVPVENLITPTLQPVQFAQMLAEANQAQVTVLNVCDRRTSSSKIASRRSQLALLVSKLALPNSPEVQIIAHENAAQAILQAARLYDLVVLPFIRNRTSPGGLALSDVTTQLASQLTCSIVMLGEPQRLQTGNITSVAPNTTTAV”, “failed”.

Regarding “MEQHHVRSLLKPSAYPDPTGSVELVQTHVSYIFLTDNFAYKVKKPVDFGFLNFSTPDRRRFYCEEEVRLNRRLCPDIYLGVAEVRDTPAGAAFVGEGQVIDHAVKMKRLPADRMLDRLLSAGLAGEPEIRAVARVVGTFHLEAEHSSEIDAFGDLATINANWVENFQQTRPYCGITLSAGDHDFIRGWVERFMAERVDLFAARVGDGRIRDGNGDIHMENICLGADGRVCIFDCIEFNNRFRYGDTAADIAFLLMDFDFVLRPDLGAAFLDEYTRITNDASVVEMIDFYKVYRAFVRGKVESMRLSDPQIPENEKQAAAARASRYFRLARGYAVRQGLPPTLFITCGLTGTGKSRLSRELSLDLGLEIASSDVVRKELAGLRSTERPDQDYGAGIYTDRFSLLTYGELERRARVALEGGRSIVVDATFRRRADRERFGALARDAGATFVILHAVCPEPTIRSRLNSRQKDRSEPSDGTWEVYLRQKDEFDPPSDQEGNLLCIDTSDTASAMVDKVLHGLELLPCGKS”, the protein production result is “failed”.

Take “MEQIILDIIEFLKQFSYFGVVLALTFEFIPAEVVLPMVGYWVYEGDMNFWLAVLAGTLGGTTGPLTLYALGYYGGRPLLIKYGKYFFIKEEQIQKADDFFEKYGPVVAFVGRFVPGVRTLISVPCGMAKMNIWKFSIYTFVAMFPLTTLYVYFGMKLGPHWEKAADVVGQYMLPILGGVILIVASIFVYKYMKKRNKTESI”: the protein production result is “not failed”. For “MEQKQQSERLGTEAIPKLLRSLSIPAMIGMFVMALYNVVDTIFISYAVGIEGVAGVTIAFPIMMIMMSMAGALGIGGASVISRRLGERRGEEANQVFGNILTVILVLSVIGFISAFTLLGPALQLFGATSVTQGYATDYLFPILLGSIFFFFAFAANNIIRSEGNATFAMVTMIVPAVLNILLDVLFIFGLNMGVLGASIATVIAQASVTGLVLRYFLTGKSTLSLHWSDLRMKGSVIKEVCLVGLPAFVQQSSASLMMIAINSMLLRFGSDFYVGVFGLVQRIMMFVMMPMMGIMQAMQPIVGYNYGAKQYSRLRETVMLGFKVATIFSIGIFALLMLFPEALLRVFTADREVIQAGVSAMHILFCVTFLIGAQIVAGGLYQSLGKPKQALILSLSRQIIFLIPLVLILPHIFGLSGVWWAFPIADVLSFILTVVLLYRDRNVFFLKTKEERELDLVKTASST”, the protein production result was “failed”. As for “MEQLSDSDHRDSADATTSSCQSTTAEDGQCGGGGEAMARGLSAMLESVIKDFDSKALDTLNSQDELSGSLDRLVQDYAQINPIDPIKFLNHYIAIGLTKLLKN”, the protein production result is “failed”. In the case of “MEQNNIKEQLISFFNQACSTHQERLDFICSTRESDTFSSVDVPLEPIKNIIEITKDENQQIEITKIAVNNIKTLSSVGATGQYMASFFSTNSEPAIIFCVIYFLYHFGFLKDNNKKQIIKKAYETIADNIADYLNEN” it was “not failed”; in that of “MEQPMKPTVIITGASSGVGLYGAKALIDKGWHVIMACRNLDKTQKVADELGFPKDSYTIIKLDLGYLDSVRRFVAQFRELGRPLKALVCNAAVYFPLLDEPLWSADDYELSVATNHLGHFLLCNLLLEDLKACPDADKRLIILGTVTANSKELGGKIPIPAPPDLGNFEGFEAGFKKPIAMINNKKFKSGKAYKDSKLCNMLTTRELHRRFHQETGIVFNSLYPGCVADTPLFRNHYSLFRTIFPWFQKNVTKGYVSQELAGERVAMVVADDKFKDSGVHWSWGNRQQAGREAFVQELSEQGSDAQKAQRMWDLSEKLVGLV”, “failed”.

Consider “MEQPYVYAYPQGSGPSGAPTPQAGGVVVDPKYCAPYPIDMAIVRKMMSLTDGNFVITDVNGNLLFKVKEPVFGLHDKRVLLDGSGTPVVTLREKMVSMHDRWQVFRGGSTDQRDLLYTVKRSSMLQLKTKLDVFLGHNKDEKRCDFRVKGSWLERSCVVYAGESDAIVAQMHRKHTVQSVFLGKDNFSVTVYPNVDYAFIASLVVILDDVNREDRAA”, for which the protein production entry is on record as “not failed”. For “MEQRPYSLCLLRLSALGDITHVLPLVRTLQRERPQARLHWIIDTMGSKLMDGLDGIHFHVYDKHTGLRGMRALRAELTPLGHFDALLHMQVSLRANLLSAFVPAQRRIGYDHNRSKDLHGLFINERIPDNPGIHVLDAIGSFCEPLGLVQREVRWDLPVSEEARAWAWAQWNNDGRPVLMISPCSSHTHRNWQAKRYAAVAEHASAQGWRIVLCGGRSTLERQTADTILAQTQVPLLDMVGKDTLKQLPALLERADLVMTPDSGPMHIANALGKKVLGLHAASNPHRSGPYSDLRYCVNRYDAAAHKYLGKPSNMLKWGTKIESNGVMDLVTVEDAIAAFERYRADYAHH”, the protein production result is recorded as “failed”. As to “MEQYKLVLEGAKQLKWETNEIKDIQDDEIIVKTIAGSISIGAELPQYNGSDVTDPHPFYPRKTGYESYGEVIEVGNQVTHVNVGDKVVSFYGHETIGIVKAHKVIRVPSSIQPKIALLSILSCDAAKGVLKLNPRQDEKVLIIGMGVIGLLACYFLKYYVGIEHVDVVEPNKNRRDFAKKFGTKNIYDSEEKIIETYNYGFECSATNSGFHTLQKALKTNGKICILSDGNIEELTLTANFYQKELQIIGSSDGYDYQKHADWFFEEIGKTPFIEEIFQHEIHYTSLIQCFDELSLGIIKPLKVYVSYE”, the protein production result is listed as “failed”. Take “MERDENYLRAKKRVENLKAFYIHLTVYILVNLMLFFINISSDSSKLWFLYPLAGWGIGIVIHALTTFPVGIFGKEWEERKIKEYMEKDK”: the protein production entry was “failed”. Regarding “MERDTVLTATPTIDADLADATSCATPSRTAVSPLLPVLAALAAVVLWGGAFPAMKVAVQTLGTWQMMWARMVFALLLLVPLARRLAPARIERRDLPLLAGMALMQPCLYFLCESTALQLTTSSQAGVMAASMPLMMAVGGFLLGEKVSPRLWFGVGVSCIGVAWLTSSGGEGGGSAPDPFTGNLLELAAMACATGSSLCIGALISRGKGRWNALTLTGIQTLAGAVFFLPGAPGVIGGVADWSTEVLLAVVYLGGASSLGAFGLYNWALGHMPASRAGNFINLVPVAAIFFGWLLLGETLTTTQYLATGLVMGGVLMGTRAR”, the protein production entry was “failed”. In the case of “MERGVDNWKVDCKCGTKDDDGERMLACDGCGVWHHTRCIGINNADALPSKFLCFRCIEL”, the protein production result is “not failed”.

Turning to “MERHVNYTLIGGLFFLCLVCMVGFILWLGHLGLDDGKYYEYVVYTDKDLGGIATNSPINYKGIQVGNVIKVGFAKDKVGVVRLDLMIKSSVKIRKDSKVAVSSRGFMGLKFLALEQSHNEEFYGSGDKGERILIFKEGLMDRLSGDANQVVQEVMKAIRNVNRILDDENVEKFKHILASVDDLIANLDSRKTQFDSLISNANNLVSNVNNVALDVDKRLKQGQYDFKAMFTPLIMQAQLSLRNIDNFVEKGSALIDKFDANPYKTIFGERK”, the protein production result is given as “failed”.

On to “MERKINRREKEKEYEGKHNSLEDTDQGKNCKSTLMTLNVGGYLYITQKQTLTKYPDTFLEGIVNGKILCPFDADGHYFIDRDGLLFRHVLNFLRNGELLLPEGFRENQLLAQEAEFFQLKGLAEEVKSRWEKEQLTPRETTFLEITDNHDRSQGLRIFCNAPDFISKIKSRIVLVSKSRLDGFPEEFSISSNIIQFKYFIKSENGTRLVLKEDNTFVCTLETLKFEAIMMALKCGFRLLTSLDCSKGSIVHSDALHFIK”, for which the protein production result was “failed”. In the case of “MERKKLIAKFVEIASEKMGKDLETVDEENTFKELGFDSIDVIDLVMFFEDEFALRIEDEEISKIRKVKDLIDIVIKKLEEIDDEVSEG”, the protein production result was “not failed”.

As to “MERLAPAKVNLGLSVRFRREDGYHELHTLFAPFSLADRLVVEPVSSGLHFQGPYGRENLAYRAASLYLEAAGQPGGVRILLEKRIPEGAGLGGGSSDAAQVLLALQALYPAEVDLFALARTLGADVPFFLLGRGAEARGVGERLKPLALPPVPAVVFFPGLRVPTPLVYRAVRPEDFGPDLPVEAILEALARGEEPPYWNSLEGPAFRLFPELKEVRGRMRALGLRGVLMSGSGSAFFGLAEGPDHARRAAEALRAWGRAWAGTLGGGDAGSGPA”, the protein production result is reported as “not failed”. The entry for “MERMMNKRILKGTLTAIAALMSAHAFAGQEVTVYTAFETDLLAKYKSAFEKENPDIEIKWVRDSTGIMTAKLLAEKDNPRAEVVWGLAGSSMALLKDQGVLKPYTPKGANELRANLNDPQAQQAWYGNDAFFNAVCFNEAVAKQLNLPKPQSWEDLTNPVYKGHIAMPNPASSGTGYMQVSAWLQNMGEDKAWDYMQRLDQNIAHYTHSGSKPCVQAGMGEVAIGISMATRGAKLKTQGAPLDVIVPNGIGWESEAVGLVKESDAAKRVVDWSVSKAANELYIESYPIVGHQDVSKQVPNYPNVEKVMAKMDFTQMGVDRARVLQTWSEKFDAKSEPKS” is “failed”.
